Experimental data from patent US8956838B2, “Carboxyl esterase polypeptides” (B.R.A.I.N., priority 2006, dated 2015).

What was measured:
Format in all cases: biochemical
[1] = Substrate specificity on pNP-substrates with importance for pharmaceutical products; conditions: 30 minute, 40° C., pH 7.5
Protocol: The substrate range of the two enzymes was determined using pNP esters of the following: benzoate, 2-(4-isobutylphenyl)propanoate (Ibuprofen), 2-phenylpropanoate, 3-phenylbutanoate, cyclohexanoate, 2-(3-benzoylphenyl)propanoate, 2-naphthoate, 1-naphthoate, adamantanoate and 2-(6-methoxynaphthalene-2-yl)propanoate (Naproxen). Activity was determined at 410 nm after 30 minute incubation at 40° C. The reaction mixture was 950 μl buffer (100 mM Tris, pH 7.5), 50 μl substrate (5 mg/ml in DMSO) and 1 μg enzyme.

[2] = Enzyme activity with pNP-acylesters of different chain length; conditions: 4 mM, 45° C., pH 7.2
Protocol: Enzyme activity tests were performed by incubating the enzyme with 4 mM substrate at 45° C. in 100 mM Tris-HCl buffer at pH 7.2, unless otherwise indicated. The reaction was measured at 410 nm. One unit is defined as the amount of enzyme catalyzing the appearance of 1 μmol of free p-nitrophenol/min. Enzyme activity against pNP-acylesters (butyrate, valerate, caproate, octanoate, decanoate and palmitate) was tested under the above conditions. […] The enzyme according to SEQ ID NO: 6 converted pNP-caproate with a specific activity of 80.0 U/mg.

[3] = Titration assay with triglycerides; conditions: 10 mM, 37° C., pH 7.0
Protocol: (§1) Enzyme activities on the substrates triacetin, tripropionin, tributyrin, tricaprylene, trilaurin and vinyl-substrates (vinyl-acetate, ˜propionate, ˜butyrate, ˜caproate, ˜caprylate and ˜laurate) were determined using a standard titration assay with minor modifications. Tests were performed with a Methrom 718 STAT potentiometric titrator (Herisau, Switzerland) and by using 10 mM NaOH for titration. The substrates at 10 mM concentration were emulsified in 20 ml reaction buffer containing 2 mM Tris/HCl pH 7.0. After addition of 7.5 μg of the purified enzyme the NaOH consumption was recorded at a reaction temperature of 37° C. One unit was defined as the amount of enzyme that released […] of fatty acid per min.

[4] = Titration assay with vinyl acid esters; conditions: 10 mM, 37° C., pH 7.0
Protocol: as §1

[5] = Effect of bivalent cations and EDTA on catalytic activity
[6] = Solvent stability, residual activity; conditions: 1 h at 30° C., measured at 45° C.
Protocol: The stability of the enzymes was determined in the presence of the following solvents: DMSO, isopropanol, methanol, dimethylformamide, acetone and acetonitrile. The enzymes were incubated for 1 hour at 30° C. in the presence of either 15% (v/v) or 30% (v/v) of the solvents and the residual activity was measured at 45° C. The substrate used was pNP-butyrate.

[7] = Determination of pH optimum by titration; conditions: incubation for up to 48 hours, up to pH 12 (data not shown)
Protocol: The pH optimum for the enzymes was determined using tributyrin as substrate. The incubation conditions were 20 ml buffer (2.5 mM phosphate buffer [pH 4-7], 2.5 mM Tris/HCl buffer [pH 7-11] or 2.5 mM glycine buffer [pH 9-11], supplemented with 100 mM NaCl) stirred at a constant temperature of 37° C. The esterase substrate tributyrin (final concentration of 2 mM) was added to 5 ml of the corresponding buffer at 37° C., emulsified and added to the whole preparation. This substrate emulsion was held constant at the correct pH automatically by the titrator (718 STAT Titrino; Metrohm, Herisau, Switzerland) for 2 min and this served as the control. […]

[8] = Determination of thermal stability
Protocol: To assay the thermostability of the enzymes they were incubated at different temperatures for one hour and the residual activity assayed at 10 minute intervals. Residual activity was measured using pNP-caproate as substrate as described above.

B1: EstCE1: recombinant enzyme having carboxyl esterase activity, amino acid sequence SEQ ID NO: 4, family VIII of bacterial lipolytic enzymes (protein)
chain: MSIADQSLAKRVQGVSQQAIDEGRIVGSVVLIARHGRVIYANASGYADREQKKPMVRETQFRLSSVSKPYITLAAMRMIEQQKLGLDDTVSRWLPWFTPALADGVRPPIKIRHLLSHTAGLDYRLSQPAEGPYHRLGIKDGMELSSLTLEQNLRLLAQADLLAEPGSEFRYSLAIDVLGAVLEQVAGEPLPQVFNHWVAQPLGLRNTGFYTTDVDNLATAYHDTAAEPEPIRDGMLLTLPEGFGFEIELAPSRALDAQAYPSGGAGMVGDADDVLQLVETLRTGKEGILQPATAALMRQAHVGSHAETQGPGWGFGFGGAVLEDAQLAATPQHNGTLQWGGVYGHSWFYDPQAAISVVALTNTAFEGMSGRYPLQIRDAVYGTNEPTR
modifications: metagenomic sequence
specific activity ([1]; pNP-ester of 1-naphthoate): 0 U/mg
specific activity ([1]; pNP-ester of 2-(3-benzoylphenyl) propanoate): 0.8 U/mg
specific activity ([1]; pNP-ester of 2-(4-isobutylphenyl) propanoate (Ibuprofen)): 0 U/mg
specific activity ([1]; pNP-ester of 2-(6-methoxy-naphthalen-2-yl) propanoate (Naproxen)): 0 U/mg
specific activity ([1]; pNP-ester of 2-naphthoate): 0 U/mg
specific activity ([1]; pNP-ester of 2-phenylpropanoate): 0 U/mg
specific activity ([1]; pNP-ester of 3-phenylbutanoate): 1.0 U/mg
specific activity ([1]; pNP-ester of adamantanoate): 0 U/mg
specific activity ([1]; pNP-ester of benzoate): 12.1 U/mg
specific activity ([1]; pNP-ester of cyclohexanoate): 16.8 U/mg
specific activity ([2]; substrate pNP-butyrate (C4)): 31.1 U/mg
specific activity ([2]; substrate pNP-caproate (C6)): 7.4 U/mg
specific activity ([2]; substrate pNP-decanoate (C10)): 0.9 U/mg
specific activity ([2]; substrate pNP-octanoate (C8)): 1.0 U/mg
specific activity ([2]; substrate pNP-palmitate (C16)): 0.0 U/mg
specific activity ([2]; substrate pNP-valerate (C5)): 22.9 U/mg
specific activity ([3]; substrate triacetin (C2)): 26.7 U/mg
specific activity ([3]; substrate tributyrin (C4)): 54.7 U/mg
specific activity ([3]; substrate tricaprylin (C8)): 0 U/mg
specific activity ([3]; substrate trilaurin (C12)): 0 U/mg
specific activity ([3]; substrate tripropionin (C3)): 33.3 U/mg
specific activity ([4]; substrate vinyl acetate (C2)): 13.3 U/mg
specific activity ([4]; substrate vinyl butyrate (C4)): 16.0 U/mg
specific activity ([4]; substrate vinyl caproate (C6)): 0 U/mg
specific activity ([4]; substrate vinyl caprylate (C8)): 0 U/mg
specific activity ([4]; substrate vinyl laurinate (C12)): 0 U/mg
specific activity ([4]; substrate vinyl propionate (C3)): 13.3 U/mg
stimulatory effect on catalytic activity ([5]; in the presence of Ca^2+): 118%
stimulatory effect on catalytic activity ([5]; in the presence of Mg^2+): 108%
Residual activity after 1 h incubation in the presence of solvent ([6]; 15% (v/v) Acetone): 14%
Residual activity after 1 h incubation in the presence of solvent ([6]; 15% (v/v) Acetonitrile): 0%
Residual activity after 1 h incubation in the presence of solvent ([6]; 15% (v/v) DMSO): 103%
Residual activity after 1 h incubation in the presence of solvent ([6]; 15% (v/v) Dimethylformamid): 34%
Residual activity after 1 h incubation in the presence of solvent ([6]; 15% (v/v) Isopropanol): 75%
Residual activity after 1 h incubation in the presence of solvent ([6]; 15% (v/v) Methanol): 90%
Residual activity after 1 h incubation in the presence of solvent ([6]; 30% (v/v) Acetone): 0%
Residual activity after 1 h incubation in the presence of solvent ([6]; 30% (v/v) Acetonitrile): 0%
Residual activity after 1 h incubation in the presence of solvent ([6]; 30% (v/v) DMSO): 17%
Residual activity after 1 h incubation in the presence of solvent ([6]; 30% (v/v) Dimethylformamid): 0%
Residual activity after 1 h incubation in the presence of solvent ([6]; 30% (v/v) Isopropanol): 23%
Residual activity after 1 h incubation in the presence of solvent ([6]; 30% (v/v) Methanol): 0%
stability under alkaline conditions, in words [7]: extremely stable with little loss of activity
thermal stability, in words ([8]; incubated for at least 60 minutes at 40° C.): without a major loss of activity
thermal stability, in words ([8]; incubation at temperatures above 45° C. for more than 60 minutes (data not shown)): rapid inactivation
